Key:
[1] = target: T1, SARS-CoV-2 receptor binding domain (RBD), wild type, monomeric (SARS-CoV-2, GenBank MN975262.1 (wild …, UniProt A0A679G9E9)); assay: ELISA
SARS-CoV RBD = SARS-CoV RBD (SARS-CoV, GenBank ABD72970.1, UniProt Q202E5); assay: ELISA
WIV1 RBD = WIV1 RBD (bat SARS-like CoV WIV1, GenBank …, UniProt U5WI05); assay: ELISA
SHC014 RBD = SHC014 RBD (bat CoV SHC014, GenBank QJE50589.1, UniProt A0A6M3U4F6); assay: ELISA
RaTG13 RBD = RaTG13 RBD (bat CoV RaTG13, GenBank MN996532.2, UniProt A0ABF7PLN6); assay: ELISA
[2] = target: T1, SARS-CoV-2 receptor binding domain …; assay: BLI

Measured: binding result

B1: ab007 IgG (antibody, V domains shown)
VH: QVQLVQSGAEVKKPGSSVKVSCKASGGTFSSYAISWVRQAPGQGLEWMGGIIPIFGTANYAQKFQGRVTITADESTSTAYMELSSLRSEDTAVYYCASPHCSSTSCLYHYYYYGMDVWGQGTTVTVSS
VL: not shown
binds: [1]

B2: ab072 IgG (antibody, V domains shown)
VH: not shown
VL: QSALTQPASVSGSPGQSITISCTGTSSDVGGYNYVSWYQQHPGKAPKLMIYDVSNRPSGVSNRFSGSKSGNTASLTISGLQAEDEADYYCSSYTSSSTLVVFGTGTKVTVL
not listed: [2]
binds: all other assays above

B3: ab072 Fab (Fab, V domains shown)
VH: not shown
VL: QSALTQPASVSGSPGQSITISCTGTSSDVGGYNYVSWYQQHPGKAPKLMIYDVSNRPSGVSNRFSGSKSGNTASLTISGLQAEDEADYYCSSYTSSSTLVVFGTGTKVTVL
binds: [2]

B4: ab109 IgG (antibody, V domains shown)
VH: QVQLVQSGGGVVQPGRSLRLSCAASGFTFSSYAMHWVRQAPGKGLEWVAVISYDGSNKYYADSVKGRFTISRDNSKNTLYLQMNSLRAEDTAVYYCARDQEYYDILTGASGGFDYWGQGTLVTVSS
VL: not shown
not listed: [2]
binds: all other assays above

B5: ab017 IgG (antibody, V domains shown)
VH: not shown
VL: QSVLTQPASVSGSPGQSITISCTGTSSDVGGYNYVSWYQQHPGKAPKLMIYDVSNRPSGVSNRFSGSKSGNTASLTISGLQAEDEADYYCSSYTSSSSVVFGGGTKLTVL
not listed: [2]
binds: all other assays above

B6: ab114 IgG (antibody, V domains shown)
VH: QVQLVQSGGGVVQPGRSLRLSCAASGFTFSSYGMHWVRQAPGKGLEWVAVIWYDGSNKYYADSVKGRFTISRDNSKNTLYLQMNSLRAEDTAVYYCARDVSSGWSPGDFDYWGQGTLVTVSS
VL: QSVLTQPASVSGSPGQSITISCTGTSSDVGGYNYVSWYQQHPGKAPKLMIYEVSNRPSGVSNRFSGSKSGNTASLTISGLQAEDEADYYCSSYTSSSTYVFGTGTKVTVL
not listed: [2]
binds: all other assays above

B7: ab119 IgG (antibody, V domains shown)
VH: EVQLVESGGGLIQPGGSLRLSCAASGFTVSSNYMSWVRQAPGKGLEWVSVIYSGGSTYYADSVKGRFTISRDNSKNTLYLQMNSLRAEDTAVYYCARDLRGITWGQGTLVTVSS
VL: not shown
binds: [1]

Source: article PMC7885909 (bioRxiv, 2021)
